Data on 41 sequences can be found in the nanobody polyreactivity screen of Harvey et al. (2022).

This data set in a line: yeast display, Sf9 membrane polyspecificity reagent, FACS + sequencing; frameworks hold sequencing errors. The essentials: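 Galactose-induced (36–48 hours) yeast carrying a synthetic nanobody display library were exposed to 10% biotinylated, detergent-solubilized Sf9 membrane reagent at 4 °C for 1 hour. FACS followed streptavidin microbead enrichment, using low and high (top ~1%) gates for expression (anti-HA) and reagent binding (streptavidin). Colony PCR, MiSeq 2 × 250 sequencing and CDR-length filtering followed. Labels for polyreactivity reflect the gate of origin.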
On to “QVQLGESGRGLVQAGGSLRLSCAASGRTSWYYAMGWYSQAPGKERELVATSTRSTGSTYYADSVKGRFTISRDNAKNTVYLQMNSLKPEDTAVYYCAKRRKTQPFYIKWYRVDYWGQGTQVTVST”, for which the “polyreactivity (PSR sort gate)” value is recorded as “high polyreactivity”. The entry for “QVQLGETGGGLVQAGGSLRLSCAATGSIFRYNAMGWYRQAPGKERELVAAISGRGTSTYYADSVKGRFTISRDNAKNTVYLQMNSLKPEDTAVYYCAAVYFSSFLVEYYYWGQGTQVTVSS” is “high polyreactivity”. As for “QVQLHESGGGLVQAGGGLRLSCAASGSISSTGFMGWYRQAPGKESEPVAAIAPGTTTYYADSVKGRFTISRDNAKNTVYLHMKSLRPEDTAVYYCAVFTDNRVAFLYWGEGTQVTVSS”, the “polyreactivity (PSR sort gate)” value was “low polyreactivity”. Turning to “QVQLHESGGGLVQAGGGLRLTCAASGSISSTGFMGWYRQAPCKELEPVAAIAPGPTTYYADSGKGRFTISRDNAKNTVYLQMTSPRPEDTAVNYGAVFTDNRVAFLYWGQGTQVTVSS”, the “polyreactivity (PSR sort gate)” value was “low polyreactivity”.

For “QVQLHESGGGLVQAGGSLRLSCAASGTISVTYNMGWYRQAPGKEREFVAGNSTGATTNYADSVKGRFTISRDNAKNTVYLQMNSLKPEDTAVYYCAAHIYRQDHFYYWGQGTQVTVSS”, the “polyreactivity (PSR sort gate)” value was “low polyreactivity”. As for “QVQLHESGGGLVQAGGSLRRSCAASGTISYAGPMGWYRQAPGKEREFVAGIGVGSNTNYADSVKGRYTIIRDNAKNTVYLQMNSLKPEDTAVYYCAVGGYAPLGRPYWGQGTQVTVSS”, the “polyreactivity (PSR sort gate)” value is recorded as “low polyreactivity”. With “QVQLHESGGGLVQAGRGLRLSCPASGSITSTGFMGSYRQPPGKEREPVAAIAPGTTTYYADSVKGRFTISRDNAKYTEYLQMNSLRPEDTAVYYCAVFTDNRVAFLYWGQGTQVTVSS”, the “polyreactivity (PSR sort gate)” value is recorded as “low polyreactivity”. With “QVQLHESGGVLVQAGGSLRLSCAASGTISVHYNMCWYRQEPRQEREFVAGNSTGATTNYADSVKGRFTISRDNENNTVYLQMNSLKPEDTAVYYCAAHIYGQDHFYYWGQGTQVTVSS”, the “polyreactivity (PSR sort gate)” value is listed as “low polyreactivity”. For the sequence “QVQLHESVGGLVQAGVSLRLSCEASGTNFTARFIGWYRQAPGKERELVATITDGCYTNHADSVNGRFTISRDNAKNTVYLTMNSLKPEVAAVYYCAAGDVDNDTLMYWGQGSQVTVSS”, the “polyreactivity (PSR sort gate)” value is on record as “low polyreactivity”. “QVQLIESGGGLVQAGGSLRLSCAASGSTCDRNSMGWYRPAPGKERELVAAIDSDVNTYYADSVKGRFTISRDKAKNTVYLQMNSLTPEDTAVYYCAADYYSWPYDYWGQGTQVTVSS”: the “polyreactivity (PSR sort gate)” value is given as “low polyreactivity”. On to “QVQLLEIGGGLVQAGGSLRQSCMASGSILGDRMSWYRQAPGKEHELVATIFDGGITYYADSMKGRFTISRDNAKNTVYLQMNSLRPEDTAVYYCGASFDGYRYHVYCGQGTQVTVSS”, for which the “polyreactivity (PSR sort gate)” value was “low polyreactivity”. “QVQLLESAGGLVQAGGSLRLSCAASGFIYIPYAMGWYRQAPGKERELVAAISTRGGGTYYADSVKGRFTISRDNAKKPVYLQMNSVKPEDTAVYYCNKQAFYNGRVGYDYWGQGTQVTVSS”: the “polyreactivity (PSR sort gate)” value is “low polyreactivity”. Consider “QVQLLESCGGLVQAGGSLRLSCAASGSILTQYAMGWYRQAPGKERELVAAITGRGGSTYYADSVKGRFTISRDIAMYTVYLEMNSLKPEDTAVFYCAAEERYAYRYDYWGQGTQVTVSS”, for which the “polyreactivity (PSR sort gate)” value is reported as “high polyreactivity”.

In the case of “QVQLLESGGGIVKAGGFLRLSCAASGSTFRRYAMGRYREAPGIERELVAAITGRGGSTSYADSVKGRFTISRDNAMNTVYLQMNSLKPEDTSVYYCAADDKYFYPGNGYWGQGTQVTVSS”, the “polyreactivity (PSR sort gate)” value was “high polyreactivity”.

Take “QVQLLESGGGLDQAGGILRLSCASSGRTFNWYAMGWYRQAPGKEREFVAAINWSGGSTYYADSVKGRFTISRDNAKNTVYLQMNSLKPEDTAVYYCNKYPVGYRMYYWGQGTQVTVSS”: the “polyreactivity (PSR sort gate)” value is recorded as “low polyreactivity”.

“QVQLLESGGGLGQAGGSLRLSCAASGIIFRDSGMGWYRQAPGKEREFVATITYSGGGTYYADSVKGRFTISRDHAKNTVYLQMNSLKPEDTAVYYCAAYPFYYDLAYDYWGQGTQVTVSS”: the “polyreactivity (PSR sort gate)” value is listed as “low polyreactivity”. With “QVQLLESGGGLLQAGGSLRLSCAASGITLIGNAMGWYRQAPGKESELVAAISKSGGNTFYAVSVKGRFTISRDNAKNTVYLQMNSLKPEDTAVYYCAADGYYGYYSQYEYLYYYWGQGTQVTVSS”, the “polyreactivity (PSR sort gate)” value was “high polyreactivity”. For the sequence “QVQLLESGGGLVEAGGSLRLSCSASGSTYNAMGWYRQATGKEREFVAYITTGGGGTYYADSVKGRFTISRDNAKNTVYLQMNSLKPEETADYYCAAEDYRTRTYVYRYRYYFWGQGTQVTVAS”, the “polyreactivity (PSR sort gate)” value is “high polyreactivity”. In the case of “QVQLLESGGGLVPAGGSLRLSCAASGRIFSRYAMGWYRQAPGKERELVAAISRNGGSTYYADSVKGRFTISRDNAKNTVYLQMISLKPEDTAVYYCAASYFIYHYDFDYWGQGTQVTVSS”, the “polyreactivity (PSR sort gate)” value is on record as “high polyreactivity”. Take “QVQLLESGGGLVPSRGSLRLSCAASGFIFGHNTMGWYRQAPGKERELVARITSSGGGTNYADSVKGRFTISRDNAKNTVYLQMNSLKPEDTAVYYCAAELLYWGYYDYDYWGQGTQVTVSS”: the “polyreactivity (PSR sort gate)” value is given as “high polyreactivity”. With “QVQLLESGGGLVQAGGILRLSCAASGIIFRYYTMGWYRPAPGKERELVAAITSGGSTNYADSVKGRFTISRDNAKHTVYLQMNRLKPEDTAVYYCRQLSVWGYDYWGQGTQVTVSS”, the “polyreactivity (PSR sort gate)” value was “high polyreactivity”.

Take “QVQLLESGGGLVQAGGRLRLSCAASGSIFLWNAMGWYRQAPGKERELVAAITNIGGRTYYADSVKGRFTISRDNAKNTVYLQMNSLKPEDTAVYYCNVVVKGAWDYYPYDYWGQGTQVTVSS”: the “polyreactivity (PSR sort gate)” value is “high polyreactivity”. For “QVQLLESGGGLVQAGGSHRLSCAASGIIFQWNVMGWYRQAPGKERELVASITSGSSTHYADSVKVRFTISRDNAKNSVYLQMNSLKPEDTAVYYFAADGALRAEYDVEIEYDYWGQGTQVNVSS”, the “polyreactivity (PSR sort gate)” value was “low polyreactivity”. For the sequence “QVQLLESGGGLVQAGGSLRLICSASGRTFSGYALGWYRHSPGRERELVAAITSSGSSKYYADSVKGRFTISRDKAKYTVYLQMKSLKPEDTAVYYCAATPQAHSEPYFYQRKYDFWGEGTQVTVSS”, the “polyreactivity (PSR sort gate)” value was “low polyreactivity”. As for “QVQLLESGGGLVQAGGSLRLRCAASGFIISRYAMAWYRQAPGKEMELVAGITGSGGSTYYADSVKGRFTISRDNAKNTVYLQMNSLKPEDTAVYYCAAGRRGGALLFYYWGQGTLVTVSS”, the “polyreactivity (PSR sort gate)” value is “high polyreactivity”. Then “QVQLLESGGGLVQAGGSLRLSCAASGFIFDESAKGRYRQAPGKERQLVAAISWSGSRTYYADSVKGRFTISRDNAKNTVYLQMNSLKPEDTAVYYCAKVTGVGAGRRNYWGQGTQVTVSS”, with “low polyreactivity”. On to “QVQLLESGGGLVQAGGSLRLSCAASGFIFNHYAMGWYRQAPGKEREFVAAISWSGGSTYYADSVKGRFTISRDNAKNTVYLQMNSLKPEDTAVYYCAASYNGLWHGDYDYWGQGTQVTVSS”, for which the “polyreactivity (PSR sort gate)” value is listed as “low polyreactivity”. On to “QVQLLESGGGLVQAGGSLRLSCAASGFTFEDNAMGWYRKAPGKERELVAADGTNYADSVKGRFTISRDNAKNTVYLQMNSLKPEDTAVYYCARYARQVTPLSIGLYDYWGQGTQVTVSS”, for which the “polyreactivity (PSR sort gate)” value is recorded as “low polyreactivity”. Turning to “QVQLLESGGGLVQAGGSLRLSCAASGIIFRVYAMGWYRQAPGKERELVATITWSGGSTFYADSVKGRFTISRDNAKNTVYLQMNSLKPEDTAVYYCAKRGYVRSGLGRPYADDYWGQGTQVTVSS”, the “polyreactivity (PSR sort gate)” value is “low polyreactivity”.

For “QVQLLESGGGLVQAGGSLRLSCAASGITFQLYAMGWYRQAPGKEREFVAAINGRSGRTYYADSVKGRFTISRDNAKNTVYLHMNSLKPEDTAVYYCAKTSNGYGSGLPMYYWGQGTQVTVSS”, the “polyreactivity (PSR sort gate)” value was “high polyreactivity”. Consider “QVQLLESGGGLVQAGGSLRLSCAASGLTFNTYAMGWYIQAPGKERELVAAISRGGGSTYYADSVKGRFTISRDNAKNTVYLQMNSLKPEDTAVYYCNAEKRASYLLYDYWGQGTQVTVSS”, for which the “polyreactivity (PSR sort gate)” value is given as “high polyreactivity”.

Turning to “QVQLLESGGGLVQAGGSLRLSCAASGNIFMDYAMGWYRHAPGKERELVAAITSRVDDTYYADSVKGRFTISRDNAKNTVYLQMNSLKPEDTAVYYCAADYSVTLRIGGYYWFYAFDYWGQGTQVTVSS”, the “polyreactivity (PSR sort gate)” value is “low polyreactivity”. On to “QVQLLESGGGLVQAGGSLRLSCAASGRIFGRYAMGWYRHAPGKERELVAAISQSGARTYYADSVKGRFTFSRDNAKNTVYLQMNSLKPEDTAVYYCAARYKALYDYWGQGTQVTVSS”, for which the “polyreactivity (PSR sort gate)” value is given as “high polyreactivity”. Consider “QVQLLESGGGLVQAGGSLRLSCAASGRIFGSNAMGWYRQAPGKERELVAAITRGGSTNYADSVKGRFTISRDNAKNTVYLQMNSLKPEDTAVYYCAVRWYRKYNYWGQGTQVTVSS”, for which the “polyreactivity (PSR sort gate)” value is “high polyreactivity”. Turning to “QVQLLESGGGLVQAGGSLRLSCAASGRIFKFNAMGWYRQAPGKERDLVAAISKRGGSTYYADSVKGRFTISRDNAKNTVYLQMISLKPEDTAVYYCAADRSPYGGDYDYWGQGTQVTVSS”, the “polyreactivity (PSR sort gate)” value is given as “high polyreactivity”. As for “QVQLLESGGGLVQAGGSLRLSCAASGRTFQRNAMGWYRQAPGKETELVATITTNGGSTYYADSVKGRFTISRDNAKNTVYLQMNSLKPEDTAVYYCAAPFNPRVRTLRSVRMDYWGQGTQVTVSS”, the “polyreactivity (PSR sort gate)” value was “low polyreactivity”. As for “QVQLLESGGGLVQAGGSLRLSCAASGRTFTTYTMGWYRQAPGKERELVAAIRSGGRTYYADSVKGRFTISRDNAKNTVYLQMNSLKPEDTAVYYCNARDCVRNVYAYAGRQYDYWGQGTQVTVSS”, the “polyreactivity (PSR sort gate)” value is listed as “low polyreactivity”.

“QVQLLESGGGLVQAGGSLRLSCAASGRTLDRNAMGWYRQAPGKERELVAAISRRTGSTYYADSVKGRFTISRDNAKNTVYLQMNSLKPEDTAVYYCNKVTYGDFDYWGQGTQVTVSS”: the “polyreactivity (PSR sort gate)” value was “high polyreactivity”. Then “QVQLLESGGGLVQAGGSLRLSCAASGSIFFYYAMGWDRQAPGKERELVATITSGGSTSYADSVKGRFTISRDNAKNTVYLQMNSLKPEDTAVYYCAARKVTKSTYNYWGQGTQVTVSS”, with “low polyreactivity”. As to “QVQLLESGGGLVQAGGSLRLSCAASGSIFRYNDMGWYRKAPGKETELVATITSGTNTYYADSVKGRFTISRDNAQNTVYLQMNRLKPEDTAVYYCAKSYNAWDGRTFEEMNYWGQGTQVTVSS”, the “polyreactivity (PSR sort gate)” value is listed as “low polyreactivity”.

On to “QVQLLESGGGLVQAGGSLRLSCAASGSIFVFYAMGWYRQAPGKERELVAAISSSGGSTYYADTVKGRITISRDNAKNTVYLQMNSLKPEDTAVYYCAVRRSTGSRSPPMYYWGQGTQVTVSS”, for which the “polyreactivity (PSR sort gate)” value is “high polyreactivity”.
